The text below walks through data of publication PMC4374696, “Protease Activity of PprI Facilitates DNA Damage Response: Mn(2+)-Dependence and Substrate Sequence-Specificity of the Proteolytic Reaction”.

Data set [1] concerns the target T1, DdrO (Deinococcus radiodurans R1 (ATCC 13939)) (UniProt Q9RRB8).
T1 sequence: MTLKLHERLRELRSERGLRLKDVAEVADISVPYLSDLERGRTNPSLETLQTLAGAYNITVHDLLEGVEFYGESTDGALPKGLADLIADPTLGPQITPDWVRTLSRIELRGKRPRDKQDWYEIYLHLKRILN
The experiment in a line: EMSA. Particulars: 150 mM NaCl, 20 mM Tris-HCl pH 8.0, 5 mM MgCl2, 1.6 uM DNA, 0-16 uM protein, 30 C; 12% TB-PAGE.

Data set [2] concerns the target T2, DdrO (Deinococcus radiodurans R1 (ATCC 13939), UniProt Q9RRB8 1-131).
T2 sequence: T1 sequence
The experiment in a line: EMSA; 150 mM NaCl, 20 mM Tris-HCl pH 8.0, 5 mM MgCl2, 1.6 uM DNA, 0-16 uM protein, 30 C; 12% TB-PAGE. Particulars: protein: recombinant; tags: 6xHis-MBP tag removed by TEV; chain copies: 2; blunt. (In general: A gel shift assay detects complexes by their altered migration in electrophoresis.)

On to “AACGCCAGTTGATTAAGGGGAAATGGAGAGGGGTTCGGGGCGGCCCCTGCCTGCTCTGTCGGCCAGCTTTCGGCAGAGTGGGCCCCGGCTCCGGCGCACTGACGCGGGCTAGACCCTCCCGCGCCGCCCTCCACCGCCGCCTCTACCTTCGTCCTATGCCCCG (double strand) [PddrA- (no RDRM)]”, for which the binding result in data set [1] is recorded as “no binding”.
For the molecule “AGAAACACCAGCATGATCGCAAGGTAGGCTGCTCCGCGCACTGGGGCGTCCGCCGAAAGGTGCAGCGCGCCTCACCTTCCCTTGACCCATCCCATTCAGGGCCGCACCCTGTAGACACTGGTTACGTCCTCCCATATACTCCGGTGAGGTTGTTATGCTGCTAGCAGAAATCATCAGTGTGGGCACG (double strand) [PrecA (recA promoter, RDRM)]”, the binding entry in data set [1] is “binds”.
On the same count and under the same terms, the result for “AGGAGCAGTTTCTTCATGAAGCCTCCAGATCAAAGGCGCACGAAGCAGGCCTGCCCCAAAGGAAGGCGGGCCTGCTGGGTTGCGTGACAGCCGGGACGTAAATAATGGCCCCAGGGTAGGGGCGGGCCGGGGGGGTGTCAAGGTACGCAGCGGGGGGCCTCCATGATTCTGCCCACAACGTAAACGCGCTATCCTGGGGAG (double strand) [PrecQ- (no RDRM)]” reads “no binding”.
Same read-out and setting: the result for “AGTTTAGAACAGAATAACATTACGGTCAAGACATAAAACGCCAGTTGATTAAGGGGAAATGGAGAGGGGTTCGGGGCGGCCCCTGCCTGCTCTGTCGGCCAGCTTTCGGCAGAGTGGGCCCCGGCTCCGGCGCACTGACGCGGGCTAGACCCTCCCGCGCCGCCCTCCACCGCCGCCTCTACCTTCGTCCTATGCCCCG (double strand) [PddrA]” reads “binds”; that for “CAACCTCACCGGAGTATATGGGAGGACGTAACCAGTGTCTACAGGGTGCGGCCCTGAATGGGATGGGTCAAGGGAAGGTGAGGCGCGCTGCACCTTTCGGCGGACGCCCCAGTGCGCGGAGCAGCCTACCTTGCGATCATGCTGGTGTTTCT (double strand) [PrecA- (no RDRM)]”, “no binding”.
Same read-out and setting: the result for “CCCTTGCCATACTGCCTTTATTATGCCCTGAACAGATTAAAAAGGCCAGGGGTAGCACTCTGGCATAAGGAAAACCCAGCTTCGGCGGTCTTTGTGCCTTTGCCAGCTTTCACGGCGAAAGAAACGTCCAGATGACAGTGACACCCAAAGTGCACCCGGCGCCGTTCAGGGCACAGGTGCGGACTACAGTGGGGCCGTGAC (double strand) [PpprA]” reads “binds”; that for “GCACTGCGGCTTGCAGCGCCGGGTGACCATGCCCAGCCTCCCTGCTCCAGCGCCCGCCCGCAAACCCGAGCGGCGGCTGTTCGGGCTCTTGCGAATCTGAAGGTCTTGGTGCCCGGCCTCTGCTGGGAGGCGGGACACTGGCACCGGCTTCCCCGATGTG (double strand) [PddrB- (no RDRM)]”, “no binding”.
As to “GCACTGCGGCTTGCAGCGCCGGGTGACCATGCCCAGCCTCCCTGCTCCAGCGCCCGCCCGCAAACCCGAGCGGCGGCTGTTCGGGCTCTTGCGAATCTGAAGGTCTTGGTGCCCGGCCTCTGCTGGGAGGCGGGACACTGGCACCGGCTTCCCCGATGTGTTATGTTATTTACGTAAGGAGGAGGCAGATGTTGCAGATT (double strand) [PddrB]”, the binding result in data set [1] is listed as “binds”.
Still for that read-out and setting: the result for “TAAAAAGGCCAGGGGTAGCACTCTGGCATAAGGAAAACCCAGCTTCGGCGGTCTTTGTGCCTTTGCCAGCTTTCACGGCGAAAGAAACGTCCAGATGACAGTGACACCCAAAGTGCACCCGGCGCCGTTCAGGGCACAGGTGCGGACTACAGTGGGGCCGTGAC (double strand) [PpprA- (no RDRM)]” reads “no binding”; that for “TACTGCGGTCTGACGATGACCTCGTCCTTATCTGCGGGAGCCTCTATCTGCTCGGCGAACTGCGTCCTTTGCTGCTGGGCGAGCAGTCGGAAGGCCACGAACGCTGGCAATAGCCACAGCAGCGGCCAATTTCTGGTTTCGAAACAGGAATAAGGCAAGTTGACTGCCCTCA (double strand) [PddrO- (no RDRM)]”, “no binding”.
Consider “TACTGCGGTCTGACGATGACCTCGTCCTTATCTGCGGGAGCCTCTATCTGCTCGGCGAACTGCGTCCTTTGCTGCTGGGCGAGCAGTCGGAAGGCCACGAACGCTGGCAATAGCCACAGCAGCGGCCAATTTCTGGTTTCGAAACAGGAATAAGGCAAGTTGACTGCCCTCATTCTGTATTGACCGTAGCAAGGAGCGGTGTTACACT (double strand) [PddrO]”, for which the binding result in data set [1] is reported as “binds”.
The same measure, in the same setting: under “TAGTAACAAGCAGAGTCAATTATGTCAATGACATAAAAGGCTCAGGCCTTCTTGGTCTTCCACTCCGGGCGGTCCTTGACCACCAGGACGCGGCGGACGTTGTCGCGCAGGCGCAGGCTGCTGGCGATGGCGGTTTCGGGGTTGCCCGAAGCCTTGATGGTGTACATCAGGTAGTAGCCTTCGCGGTCCTTGCCCACCTGG (double strand) [PdrssB]” stands “binds”.

B1: minimum DdrO binding sequence of PrecA (21 bp) (dsDNA)
DNA 1: TGTTATGCTGCTAGCAGAAAT
DNA 2: ATTTCTGCTAGCAGCATAACA
As to B1, the binding result in data set [2] is listed as “binds”.
